First the molecules themselves.
B1: 5543 (antibody, V domains shown)
VH: QLQLQESGPGLVKPSETLSLTCTVSGGSISSSSYYWGWIRQPPGKGLEWIGSIYYSGSTYYNPSLKSRVTISVDTSKNQFSLKLSSVTAADTAVYYCARVGHGISYFDLWGRGTLVTVSS
VL: EIVLTQSPATLSLSPGERATLSCRASQSVSSYLAWYQQKPGQAPRLLIYDASNRATGIPARFSGSGSGTDFTLTISSLEPEDFAVYYCQQAYVWPPRTFGGGTKVEIK
B2: 5902 (antibody, V domains shown)
VH: QLQLQESGPGLVKPSETLSLTCTVSGGSISSSSYYWGWIRQPPGKGLEWIGSIYRSGSTWYNPSLKSRVTISVDTSKNQFSLKLSSVTAADTAVYYCARVGHGISYFDLWGRGTLVTVSS
VL: EIVLTQSPATLSLSPGERATLSCRASQSVSSYLAWYQQKPGQAPRLLIYDASKRATGIPARFSGSGSGTDFTLTISSLEPEDFAVYYCQQVYTWPPRTFGGGTKVEIK
B3: 6266wt (Fab, V domains shown)
VH: QVQLVQSGAEVKKPGSSVKVSCKASGGTLSGYGVSWVRQAPGQGLEWMGNIIPGFGTANYAQKFQGRVTITADESTSTAYMELSSLRSEDTAVYYCARSGGTKYGMLDVWGQGTMVTVSS
VL: EIVMTQSPATLSVSPGERATLSCRASQSVSSNLAWYQQKPGQAPRLLIYGASTRATGIPARFSGSGSGTEFTLTISSLQSEDFAVYYCQQLILWPPRTFGGGTKVEIK
notes: also called ADI6266
B4: 6266.2 Fab (Fab, V domains shown)
VH: QVQLVQSGAEVKKPGSSVKVSCKASGGTLSHYGVSWVRQAPGQGLEWMGNIIPGIGTANYAQKFQGRVTITADESTSTAYMELSSLRSEDTAVYYCARSGGTKYGMLDVWGQGTMVTVSS
VL: EIVMTQSPATLSVSPGERATLSCRASQSVSSNLAWYQQKPGQAPRLLIYGASKRATGIPARFSGSGSGTEFTLTISSLQSEDAAVYYCQQLILWPPRTFGGGTKVEIK
B5: 6266.13 Fab (Fab, V domains shown)
VH: QVQLVQSGAEVKKPGSSVKVSCKASGGTLSGYGMSWVRQAPGQGLEWMGNIIPGFGTANYAQKFQGRVTITADESTSTAYMELSSLRSEDTAVYYCARSGGTKYGMLDVWGQGTMVTVSS
VL: EIVMTQSPATLSVSPGERATLSCRASQSVSSNLAWYQQKPGQAPRLLIYGASTRATGIPARFSGSGSGTEFTLTISSLQSEDFAVYYCQQLILWPPRTFGGGTKVEIK
B6: 6266.10 Fab (Fab, V domains shown)
VH: QVQLVQSGAEVKKPGSSVKVSCKASGGTLSGYGVSWVRQAPGQGLEWMGNIIPGFGTANYAQKFQGRVTITADESTSTAYMELSSLRSEDTAVYYCARSGGTKYGMLDVWGQGTMVTVSS
VL: EIVMTQSPATLSVSPGERATLSCRASQSVSSNLAWYQQKPGQAPRLLIYGASKRATGIPARFSGSGSGTEFTLTISSLQSEDFAVYYCQQLILWPPRTFGGGTKVEIK
B7: 6266.9 Fab (Fab, V domains shown)
VH: QVQLVQSGAEVKKPGSSVKVSCKASGGTLKGYGVSWVRQAPGQGLEWMGNIIPGFGTANYAQKFQGRVTITADESTSTAYMELSSLRSEDTAVYYCARGGGTKYGMLDVWGQGTMVTVSS
VL: EIVMTQSPATLSVSPGERATLSCRASQSVSSNLAWYQQKPGQAPRLLIYGASKRATGIPARFSGSGSGTEFTLTISSLQSEDFAVYYCQQLILWPPRTFGGGTKVEIK
B8: 6266.15 Fab (Fab, V domains shown)
VH: QVQLVQSGAEVKKPGSSVKVSCKASGGTLSGYGVSWVRQAPGQGLEWMGNIIPGFGTANYAQKFQGRVTITADESTSTAYMELSSLRSEDTAVYYCARSGGTKYGELDVWGQGTMVTVSS
VL: EIVMTQSPATLSVSPGERATLSCRASQSVSSNLAWYQQKPGQAPRLLIYGASTRATGIPARFSGSGSGTEFTLTISSLQSEDFAVYYCQQLILWPPRTFGGGTKVEIK
B9: 6266.6 Fab (Fab, V domains shown)
VH: QVQLVQSGAEVKKPGSSVKVSCKASGGTLSHYGVSWVRQAPGQGLEWMGNIIPGIGTANYAQKFQGRVTITADESTSTAYMELSSLRSEDTAVYYCARSGGTQYGMLDVWGQGTMVTVSS
VL: EIVMTQSPATLSVSPGERATLSCRASQSVSSNLAWYQQKPGQAPRLLIYGASTRAYGIPARFSGSGSGTEFTLTISSLQSEDAAVYYCQQLILWPPRTFGGGTKVEIK
B10: 6266.7 Fab (Fab, V domains shown)
VH: QVQLVQSGAEVKKPGSSVKVSCKASGGTLSHYGVSWVRQAPGQGLEWMGNIIPGIGTANYAQKFQGRVTITADESTSTAYMELSSLRSEDTAVYYCARSGGTKYGELDVWGQGTMVTVSS
VL: EIVMTQSPATLSVSPGERATLSCRASQSVSSNLAWYQQKPGQAPRLLIYGASTRAYGIPARFSGSGSGTEFTLTISSLQSEDAAVYYCQQLILWPPRTFGGGTKVEIK
B11: 6266.1 Fab (Fab, V domains shown)
VH: QVQLVQSGAEVKKPGSSVKVSCKASGGTLSHYGVSWVRQAPGQGLEWMGNIIPGIGTANYAQKFQGRVTITADESTSTAYMELSSLRSEDTAVYYCARSGGTKYGMLDVWGQGTMVTVSS
VL: EIVMTQSPATLSVSPGERATLSCRASQSVSSNLAWYQQKPGQAPRLLIYGASTRATGIPARFSGSGSGTEFTLTISSLQSEDFAVYYCQQLILWPPRTFGGGTKVEIK
notes: not tied singly
B12: 6266.5 Fab (Fab, V domains shown)
VH: QVQLVQSGAEVKKPGSSVKVSCKASGGTLSHYGVSWVRQAPGQGLEWMGNIIPGIGTANYAQKFQGRVTITADESTSTAYMELSSLRSEDTAVYYCARSGGTQYGMLDVWGQGTMVTVSS
VL: EIVMTQSPATLSVSPGERATLSCRASQSVSSNLAWYQQKPGQAPRLLIYGASKRATGIPARFSGSGSGTEFTLTISSLQSEDAAVYYCQQLILWPPRTFGGGTKVEIK
B13: 6266.11 Fab (Fab, V domains shown)
VH: QVQLVQSGAEVKKPGSSVKVSCKASGGTLSGYGVSWVRQAPGQGLEWMGNIIPGFGTANYAQKFQGRVTITADESTSTAYMELSSLRSEDTAVYYCARSGGTKYGMLDVWGQGTMVTVSS
VL: EIVMTQSPATLSVSPGERATLSCRASQSVSSNLAWYQQKPGQAPRLLIYGASTRAYGIPARFSGSGSGTEFTLTISSLQSEDFAVYYCQQLILWPPRTFGGGTKVEIK
B14: 6266.14 Fab (Fab, V domains shown)
VH: QVQLVQSGAEVKKPGSSVKVSCKASGGTLSGYGVSWVRQAPGQGLEWMGNIIPGFGVANYAQKFQGRVTITADESTSTAYMELSSLRSEDTAVYYCARSGGTKWGMLDVWGQGTMVTVSS
VL: EIVMTQSPATLSVSPGERATLSCRASQSVSSNLAWYQQKPGQAPRLLIYGASTRATGIPARFSGSGSGTEFTLTISSLQSEDFAVYYCQQLILWPPRTFGGGTKVEIK
B15: 6266.3 Fab (Fab, V domains shown)
VH: QVQLVQSGAEVKKPGSSVKVSCKASGGTLSHYGVSWVRQAPGQGLEWMGNIIPGIGTANYAQKFQGRVTITADESTSTAYMELSSLRSEDTAVYYCARSGGTKYGMLDVWGQGTMVTVSS
VL: EIVMTQSPATLSVSPGERATLSCRASQSVSSNLAWYQQKPGQAPRLLIYGASTRAYGIPARFSGSGSGTEFTLTISSLQSEDFAVYYCQQLILWPPRTFGGGTKVEIK
B16: 6266.12 Fab (Fab, V domains shown)
VH: QVQLVQSGAEVKKPGSSVKVSCKASGGTLNGYGVSWVRQAPGQGLEWMGNIIPGFGTANYAQKFQGRVTITADESTSTAYMELSSLRSEDTAVYYCARSGGTKYGMLDVWGQGTMVTVSS
VL: EIVMTQSPATLSVSPGERATLSCRASQSVSSNLAWYQQKPGQAPRLLIYGASTRATGIPARFSGSGSGTEFTLTISSLQSEDFAVYYCQQLILWPPRTFGGGTKVEIK
B17: 6266.4 Fab (Fab, V domains shown)
VH: QVQLVQSGAEVKKPGSSVKVSCKASGGTLSHYGVSWVRQAPGQGLEWMGNIIPGIGTANYAQKFQGRVTITADESTSTAYMELSSLRSEDTAVYYCARSGGTKYGMLDVWGQGTMVTVSS
VL: EIVMTQSPATLSVSPGERATLSCRASQSVSSNLAWYQQKPGQAPRLLIYGASKRATGIPARFSGSGSGTEFTLTISSLQSEDFAVYYCQQLILWPPRTFGGGTKVEIK
B18: 6266.8 Fab (Fab, V domains shown)
VH: QVQLVQSGAEVKKPGSSVKVSCKASGGTLKGYGVSWVRQAPGQGLEWMGNIIPGFGTANYAQKFQGRVTITADESTSTAYMELSSLRSEDTAVYYCARGGGTKYGMLDVWGQGTMVTVSS
VL: EIVMTQSPATLSVSPGERATLSCRASQSVSSNLAWYQQKPGQAPRLLIYGASTRAYGIPARFSGSGSGTEFTLTISSLQSEDFAVYYCQQLILWPPRTFGGGTKVEIK
notes: not tied singly

Chain of BACE1 in primary mouse cortical neurons (P56818 46-501): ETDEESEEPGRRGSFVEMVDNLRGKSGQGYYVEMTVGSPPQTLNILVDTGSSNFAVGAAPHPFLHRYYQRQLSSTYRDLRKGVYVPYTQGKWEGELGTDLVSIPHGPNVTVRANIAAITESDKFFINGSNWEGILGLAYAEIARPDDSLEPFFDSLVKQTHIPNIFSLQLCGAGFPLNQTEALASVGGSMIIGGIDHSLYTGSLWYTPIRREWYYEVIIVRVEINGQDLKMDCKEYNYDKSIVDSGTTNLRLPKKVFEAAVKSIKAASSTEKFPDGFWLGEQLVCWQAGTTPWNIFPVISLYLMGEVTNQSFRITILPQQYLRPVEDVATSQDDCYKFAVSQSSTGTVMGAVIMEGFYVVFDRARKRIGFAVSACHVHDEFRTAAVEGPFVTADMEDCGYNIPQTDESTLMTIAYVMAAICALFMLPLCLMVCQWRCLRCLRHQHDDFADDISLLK

One experiment addresses BACE1 in primary mouse cortical neurons (mouse, UniProt P56818 46-501). Nature of the experiment: cell-based or functional assay.
As for B1, the “IC50, Abeta x-40 in mouse cortical neurons” value came to 18.3 nM and the “maximal % inhibition of Abeta x-40” value worked out at 65%.

On to B2, for which the “IC50, Abeta x-40 in mouse cortical neurons” value amounted to 1.59 nM and the “maximal % inhibition of Abeta x-40” value was 67%.

Another experiment deals with His-tagged BACE1 protein (Example 15) (Homo sapiens (Human), UniProt P56817 22-457). The experiment in a line: SPR (Biacore T200), Fab on captured His-BACE1.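 Further: Single-cycle kinetics with serially diluted Fab flowed over BACE1 captured by anti-His antibody on a CM5 chip, rates fitted to a one-to-one Langmuir model, Kd derived as koff over kon.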 On the technique in general: Surface plasmon resonance follows binding to a sensor surface in real time, without labels.
Chain of His-tagged BACE1 protein (Example 15) (P56817 22-457 limits assumed): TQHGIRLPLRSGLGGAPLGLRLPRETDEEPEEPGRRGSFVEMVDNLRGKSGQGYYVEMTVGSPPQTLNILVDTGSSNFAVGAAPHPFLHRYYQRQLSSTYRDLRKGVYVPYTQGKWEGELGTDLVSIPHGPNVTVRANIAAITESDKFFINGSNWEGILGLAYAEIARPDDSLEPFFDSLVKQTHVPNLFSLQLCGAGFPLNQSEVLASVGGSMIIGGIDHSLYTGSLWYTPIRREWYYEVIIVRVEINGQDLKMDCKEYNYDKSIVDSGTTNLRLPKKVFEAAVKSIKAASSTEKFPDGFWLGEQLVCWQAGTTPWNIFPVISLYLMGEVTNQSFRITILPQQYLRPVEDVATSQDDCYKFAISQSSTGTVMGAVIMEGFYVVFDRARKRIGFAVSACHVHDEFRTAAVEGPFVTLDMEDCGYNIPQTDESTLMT
As usually defined, the Kd is a measure of binding affinity in units of concentration. Read a high Kd as weaker binding. A word on the koff: it is a measure of how fast the partners let go of each other. A lower koff goes with slow dissociation. In general, kon refers to the second-order rate constant of association. A lower kon goes with slower complex formation. Take B3: the Kd is 1.09 nM, the off-rate (koff) turned out to be 0.000403 s⁻¹ and the kon was determined as 371000 M⁻¹ s⁻¹.

On to B4, for which the affinity, expressed as Kd, was 0.58 nM; the koff amounted to 0.000142 s⁻¹; the kon was 245000 M⁻¹ s⁻¹.

The molecule B5 displayed a dissociation constant Kd of 0.56 nM, an off-rate constant (koff) of 0.000411 s⁻¹ and an on-rate constant (kon) of 734000 M⁻¹ s⁻¹.

B6: the Kd is 0.69 nM, the off-rate (koff) came to 0.000506 s⁻¹ and the kon was determined as 756000 M⁻¹ s⁻¹.

The molecule B7 gave a Kd of 0.68 nM, a koff of 0.000305 s⁻¹ and an on-rate constant (kon) of 445000 M⁻¹ s⁻¹.

Turning to B8, binding was put at a Kd of 0.64 nM, the off-rate (koff) is 0.000495 s⁻¹ and the kon turned out to be 774000 M⁻¹ s⁻¹.

Regarding B9, the equilibrium dissociation constant (Kd) worked out at 0.78 nM, the koff worked out at 0.000278 s⁻¹ and the kon came out at 356000 M⁻¹ s⁻¹.

As to B10, the affinity, expressed as Kd, was 0.62 nM; the koff is 0.000333 s⁻¹; the kon is 542000 M⁻¹ s⁻¹.

Consider B11, for which binding was put at a Kd of 0.24 nM, the dissociation rate constant (koff) came to 0.000161 s⁻¹ and the kon was determined as 654000 M⁻¹ s⁻¹.

As for B12, binding was put at a Kd of 0.53 nM, the dissociation rate constant (koff) is 0.000228 s⁻¹ and the kon is 428000 M⁻¹ s⁻¹.

B13 came in with a Kd of 0.46 nM, a koff of 0.00041 s⁻¹ and a kon of 891000 M⁻¹ s⁻¹.

The molecule B14 came in with a Kd of 0.57 nM, a dissociation rate constant (koff) of 0.000474 s⁻¹ and a kon of 839000 M⁻¹ s⁻¹.

Consider B15, for which the affinity, expressed as Kd, was 0.29 nM; the koff was 0.000142 s⁻¹; the kon was 480000 M⁻¹ s⁻¹.

Molecule B16 showed a Kd of 0.52 nM, a koff of 0.000447 s⁻¹ and a kon of 854000 M⁻¹ s⁻¹.

As to B17, the Kd worked out at 0.26 nM, the off-rate (koff) is 0.00017 s⁻¹ and the on-rate constant (kon) worked out at 638000 M⁻¹ s⁻¹.

The molecule B18 yielded an equilibrium dissociation constant (Kd) of 0.56 nM, a koff of 0.000275 s⁻¹ and an on-rate constant (kon) of 488000 M⁻¹ s⁻¹.

The target in the next experiment is BACE1 (HTRF long substrate and FRET short substrate assays of Example 9D). The experiment in a line: cell-based or functional assay.
For B1, the “EC50, FRET short substrate” value worked out at 9.11 nM and the “EC50, HTRF long substrate” value stood at 30 nM.

The values are drawn from US20180057604A1 (Genentech, published 2018).
